Experimental data from patent US20030162943A1 (Takeda / Millennium, published 2003).
Numbering of substitutions follows the chain as printed. Names and notes keep the numbering of the source.

T1: human CCR5 (human, UniProt P51681 1-352 at identity 1.00))
T1 chain: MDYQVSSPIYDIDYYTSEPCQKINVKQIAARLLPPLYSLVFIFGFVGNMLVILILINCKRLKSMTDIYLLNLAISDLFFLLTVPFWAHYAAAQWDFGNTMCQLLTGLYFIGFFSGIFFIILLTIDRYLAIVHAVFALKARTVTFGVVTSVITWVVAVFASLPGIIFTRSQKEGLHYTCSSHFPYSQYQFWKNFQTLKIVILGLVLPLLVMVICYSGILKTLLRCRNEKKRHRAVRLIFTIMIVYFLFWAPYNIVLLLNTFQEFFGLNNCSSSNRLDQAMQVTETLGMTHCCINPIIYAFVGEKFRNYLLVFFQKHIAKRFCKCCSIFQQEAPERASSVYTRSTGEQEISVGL

T2: human D6 (human, UniProt O00590 1-384)
T2 construct: Full-length human D6 expressed in CHO, Hos.CD4, HEK 293, K293 or L1.2 cells; Endogenous on THP-1 cells; also called human D6 receptor; wild type human D6
T2 sequence: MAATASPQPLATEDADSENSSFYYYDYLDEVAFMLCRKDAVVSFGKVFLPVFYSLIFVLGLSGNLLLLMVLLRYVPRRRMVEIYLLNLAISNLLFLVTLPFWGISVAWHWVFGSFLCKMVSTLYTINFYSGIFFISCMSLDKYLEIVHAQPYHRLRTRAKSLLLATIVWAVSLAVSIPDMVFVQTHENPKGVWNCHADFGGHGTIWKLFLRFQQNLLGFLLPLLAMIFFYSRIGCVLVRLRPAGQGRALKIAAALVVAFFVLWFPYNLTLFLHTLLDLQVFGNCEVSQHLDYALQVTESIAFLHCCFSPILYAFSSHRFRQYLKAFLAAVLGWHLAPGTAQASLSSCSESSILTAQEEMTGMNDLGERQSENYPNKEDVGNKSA

T3: murine D6 (murine, UniProt O08707 1-378)
T3 construct: Endogenous on B-end cells in the polyclonal antibody staining; also called murine D6 receptor; mouse D6
T3 sequence: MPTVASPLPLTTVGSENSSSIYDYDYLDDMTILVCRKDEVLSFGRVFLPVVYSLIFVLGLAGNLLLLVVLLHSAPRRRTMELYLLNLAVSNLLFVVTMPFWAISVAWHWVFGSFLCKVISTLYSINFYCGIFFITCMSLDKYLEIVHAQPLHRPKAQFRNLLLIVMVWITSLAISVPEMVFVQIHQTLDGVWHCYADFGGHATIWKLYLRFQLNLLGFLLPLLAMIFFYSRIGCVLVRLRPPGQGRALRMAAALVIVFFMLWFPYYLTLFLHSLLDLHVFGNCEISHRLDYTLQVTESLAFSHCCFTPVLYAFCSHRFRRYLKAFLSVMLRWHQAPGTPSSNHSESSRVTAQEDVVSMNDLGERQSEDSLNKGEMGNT

B1: human MIP-1α (ligand, UniProt P10147 24-92, looked up)
chain: SLAADTPTACCFSYTSRQIPQNFIADYFETSSQCSKPGVIFLTKRSRQVCADPSEEWVQKYVSDLELSA
notes: also called hMIP-1α
B2: murine MIP-1α (ligand, UniProt P10855 24-92, looked up)
chain: APYGADTPTACCFSYSRKIPRQFIVDYFETSSLCSQPGVIFLTKRNRQICADSKETWVQEYITDLELNA
modifications: also: radioiodinated (125I) when used as tracer
notes: also called mMIP-1α
B3: human RANTES (ligand, UniProt P13501 24-91, looked up)
chain: SPYSSDTTPCCFAYIARPLPRAHIKEYFYTSGKCSNPAVVFVTRKNRQVCANPEKKWVREYINSLEMS
notes: also called hRANTES; HRANTES
B4: human MCP-2 (ligand, UniProt P80075 24-99, looked up)
chain: QPDSVSIPITCCFNVINRKIPIQRLESYTRITNIQCPKEAVIFKTKRGKEVCADPKERWVRDSMKHLDQIFQNLKP
notes: also called hMCP-2
B5: human MIP-1β (ligand, UniProt P13236 24-92, looked up)
chain: APMGSDPPTACCFSYTARKLPRNFVVDYYETSSLCSQPAVVFQTKRSKQVCADPSESWVQEYVYDLELN
B6: human MCP-3 (ligand)
chain: not shown
notes: also called hMCP-3
B7: human MCP-4 (ligand)
chain: not shown
B8: human HCC1 (ligand, UniProt Q16627 20-93, looked up)
chain: TKTESSSRGPYHPSECCFTYTTYKIPRQRIMDYYETNSQCSKPGIVFITKRGHSVCTNPSDKWVQDYIKDMKEN
B9: human Eotaxin (ligand)
chain: not shown
B10: murine MIP-1β (ligand, UniProt P14097 24-92, looked up)
chain: APMGSDPPTSCCFSYTSRQLHRSFVMDYYETSSLCSKPAVVFLTKRGRQICANPSEPWVTEYMSDLELN
notes: also called mMIP-1β; murine M1β
B11: murine JE (ligand)
chain: not shown
notes: They are treated here as one protein (JE is the murine MCP-1); also called murine MCP-1
B12: murine MCP-5 (ligand, UniProt Q62401 23-104, looked up)
chain: GPDAVSTPVTCCYNVVKQKIHVRKLKSYRRITSSQCPREAVIFRTILDKEICADPKEKWVKNSINHLDKTSQTFILEPSCLG
notes: also called mMCP-5
B13: murine Eotaxin (ligand, UniProt P48298 24-97, looked up)
chain: HPGSIPTSCCFIMTSKKIPNTLLKSYKRITNNRCTLKAIVFKTRLGKEICADPKKKWVQDATKHLDQKLQTPKP
B14: human D6 mutant K142R, E145A (receptor)
chain: T2 sequence with K142R, E145A
notes: Expressed in HEK 293 cells; also called K142R,E145A mutant
B15: human D6 triple mutant N92D, K142R, E145A (receptor)
chain: T2 sequence with N92D, K142R, E145A
notes: Expressed in HEK 293 cells
B16: KC (ligand, UniProt P12850 25-96, looked up)
chain: APIANELRCQCLQTMAGIHLKNIQSLKVLPSGPHCTQTEVIATLKNGREACLDPEAPLVQKIVQKMLKGVPK

Experiments:
[1] = target: T1, human CCR5; assay: cell-based or functional assay
[2] = target: T2, human D6; assay: displacement of 125I-murine MIP-1α by unlabeled chemokine on cells expressing human D6; LIGAND analysis
Method: (§1) Stably transfected CHO cells were plated at 10^5 cells/well in 24-well plates and incubated overnight at 37° C. After washing with warm PBS, the cells were incubated in 250 μl of binding buffer (special liquid medium plus 10% fetal calf serum, 4 mM glutamine, 0.2% sodium azide, 25 mM HEPES (pH 7.4)) containing variable concentrations of radioiodinated MIP-1 and cold competitor chemokine. Binding proceeded for 90 minutes at 22° C., then each well washed three times in ice-cold PBS and the cell monolayer was then solubilized by the addition of 0.5 ml of 1% SDS. Lysed cells were transferred to a counting vial and bound radioactivity counted for 1 minute in Beckman Gamma 5500B counter. Each data point was assayed in triplicate and each experiment performed at least twice of accuracy. Data was analyzed using Scahot and Scafit programs in LIGAND software (Munson et al. (1980) Anal. Biochem. 107:220-239).
The receptor binding assays were carried out as described above for the displacement analysis of murine D6 with cells being plated at 2×10⁵ cells/well in 24-well plates and incubated overnight at 37° C. prior to binding analysis.

[3] = target: B14; assay: cell-based or functional assay
[4] = target: B15; assay: cell-based or functional assay
[5] = target: T3, murine D6; assay: binding assays on CHO cells expressing murine D6
Method: as §1

[6] = target: T3, murine D6; assay: competition with 125I-murine MIP-1α on CHO cells stably expressing murine D6; LIGAND analysis
Method: as §1

[7] = target: B2; assay: radioligand binding on transfected cells
[8] = target: T3, murine D6; assay: displacement of radiolabeled murine MIP-1α from murine D6 on transfected cells
Method: as §1

B1
[Ca++] [1]: 412 nmol/L | Kd [2]: 64 nM

B2
[Ca++] [3]: 28.2 nmol/L | [Ca++] [4]: 11.3 nmol/L | binding result [5]: binds | Kd [2]: 0.92 nM

B3
[Ca++] [3]: 19.3 nmol/L | Kd [6]: 2 nM | Kd [2]: 3.6 nM

B4
[Ca++] [3]: 22.9 nmol/L | [Ca++] [4]: 13.7 nmol/L | Kd [2]: 768 nM

B5
Kd [6]: 0.26 nM | Kd [2]: 1.7 nM

B6
Kd [6]: 5 nM | Kd [2]: 1.2 nM

B7
Kd [2]: 5.9 nM

B8
Kd [2]: 27.2 nM

B9
Kd [2]: 46 nM

B10
Kd [6]: 0.77 nM | Kd [2]: 0.755 nM

B11
Kd [6]: 1.5 nM | Kd [2]: 613 nM

B12
Kd [2]: 6.3 nM

B13
Kd [2]: 30 nM

B14
binding result [7]: binds

B15
binding result [7]: binds

B16
binding result [8]: no binding
